Measured values published in patent US5994310A, “Peptide ligands for affinity purification of human Factor VIII” (Bayer Corporation, priority 1998, dated 1999).
Where no end group is shown, it is not given here.

Tests used:
human Factor VIII [1] = biological target: T1, human Factor VIII (Homo sapiens, UniProt P00451); experiment: Secondary chromatography binding assay (ELISA quantitation of column fractions); conditions: rhFVIII load 10 μg on peptide-resin column; for Elute Total μg: FVIII by ELISA in elution (Buffer C) fraction; for Flow-Through Total μg: FVIII by ELISA in flow-through fraction; for Salt Wash Total μg: FVIII by ELISA in salt wash (Buffer B) fraction
T1 construct: (the applicant)
T1 sequence (P00451 20-2351): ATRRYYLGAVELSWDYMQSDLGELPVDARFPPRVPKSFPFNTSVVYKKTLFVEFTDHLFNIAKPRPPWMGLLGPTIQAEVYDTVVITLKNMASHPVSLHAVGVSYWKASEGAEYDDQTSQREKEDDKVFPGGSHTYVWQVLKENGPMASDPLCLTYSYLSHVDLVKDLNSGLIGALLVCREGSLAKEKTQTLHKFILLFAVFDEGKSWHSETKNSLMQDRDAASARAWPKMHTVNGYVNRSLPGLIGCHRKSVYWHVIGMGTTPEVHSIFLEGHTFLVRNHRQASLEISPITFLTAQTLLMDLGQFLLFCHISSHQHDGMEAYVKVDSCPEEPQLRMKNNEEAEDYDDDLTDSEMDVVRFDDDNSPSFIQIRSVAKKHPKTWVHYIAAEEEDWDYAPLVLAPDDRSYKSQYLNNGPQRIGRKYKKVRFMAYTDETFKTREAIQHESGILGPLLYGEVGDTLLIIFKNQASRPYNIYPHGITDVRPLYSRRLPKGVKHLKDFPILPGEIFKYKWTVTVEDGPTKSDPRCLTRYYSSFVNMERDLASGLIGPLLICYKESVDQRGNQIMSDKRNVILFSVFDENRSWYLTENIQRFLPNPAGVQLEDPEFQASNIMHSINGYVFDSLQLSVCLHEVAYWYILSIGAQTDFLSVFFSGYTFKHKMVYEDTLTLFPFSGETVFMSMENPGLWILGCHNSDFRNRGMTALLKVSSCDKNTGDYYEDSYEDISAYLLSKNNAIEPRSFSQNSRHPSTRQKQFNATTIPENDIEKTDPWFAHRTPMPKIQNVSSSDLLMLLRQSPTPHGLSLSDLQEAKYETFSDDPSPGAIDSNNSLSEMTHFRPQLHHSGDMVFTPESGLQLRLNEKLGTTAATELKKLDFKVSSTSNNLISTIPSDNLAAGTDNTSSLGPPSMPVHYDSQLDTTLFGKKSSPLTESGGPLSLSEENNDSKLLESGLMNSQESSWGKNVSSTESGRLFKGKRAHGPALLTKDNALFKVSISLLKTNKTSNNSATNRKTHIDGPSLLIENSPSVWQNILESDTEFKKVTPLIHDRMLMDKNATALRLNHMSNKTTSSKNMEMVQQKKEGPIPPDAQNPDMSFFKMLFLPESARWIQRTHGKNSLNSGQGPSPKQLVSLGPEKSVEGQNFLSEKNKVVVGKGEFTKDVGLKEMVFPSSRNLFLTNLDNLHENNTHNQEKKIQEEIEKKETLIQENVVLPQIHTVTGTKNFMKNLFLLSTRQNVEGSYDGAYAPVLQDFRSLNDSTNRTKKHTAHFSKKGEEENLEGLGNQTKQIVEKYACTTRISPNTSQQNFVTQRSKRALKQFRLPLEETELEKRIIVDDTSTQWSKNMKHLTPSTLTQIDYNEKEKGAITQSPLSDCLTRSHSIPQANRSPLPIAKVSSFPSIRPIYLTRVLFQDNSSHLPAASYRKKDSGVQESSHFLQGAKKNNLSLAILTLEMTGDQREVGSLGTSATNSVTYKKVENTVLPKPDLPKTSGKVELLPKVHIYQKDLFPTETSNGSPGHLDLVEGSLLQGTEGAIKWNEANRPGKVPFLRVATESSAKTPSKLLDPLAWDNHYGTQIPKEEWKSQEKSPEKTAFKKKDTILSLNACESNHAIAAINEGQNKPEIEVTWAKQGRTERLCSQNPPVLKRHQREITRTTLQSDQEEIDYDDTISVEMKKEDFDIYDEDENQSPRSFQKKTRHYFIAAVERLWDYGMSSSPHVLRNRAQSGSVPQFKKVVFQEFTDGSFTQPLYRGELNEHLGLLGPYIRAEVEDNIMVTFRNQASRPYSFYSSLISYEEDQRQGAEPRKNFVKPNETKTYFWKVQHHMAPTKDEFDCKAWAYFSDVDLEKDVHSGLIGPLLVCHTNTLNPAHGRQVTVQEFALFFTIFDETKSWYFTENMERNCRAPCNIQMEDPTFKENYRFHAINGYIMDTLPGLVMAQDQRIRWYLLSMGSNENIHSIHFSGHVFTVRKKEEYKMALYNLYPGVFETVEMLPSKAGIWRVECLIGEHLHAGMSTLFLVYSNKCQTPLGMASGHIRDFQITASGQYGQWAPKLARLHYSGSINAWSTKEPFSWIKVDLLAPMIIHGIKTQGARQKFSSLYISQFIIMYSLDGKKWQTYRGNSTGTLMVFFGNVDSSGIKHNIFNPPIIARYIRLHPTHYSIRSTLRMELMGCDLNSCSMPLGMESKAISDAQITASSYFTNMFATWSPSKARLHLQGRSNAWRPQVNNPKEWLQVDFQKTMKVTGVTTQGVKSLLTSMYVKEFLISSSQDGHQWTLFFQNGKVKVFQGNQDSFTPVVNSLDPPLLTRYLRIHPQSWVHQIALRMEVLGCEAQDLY
Method: The secondary chromatography binding assays were performed upon a Michrom Bioresources HPLC (Auburn, Calif.). This binary system has the added advantage of a second injection loop which was outfitted with a 5 ml loop. This allowed addition of a third solvent during the HPLC run. Buffer A was 20 mM Imidazole, pH=7.0, 10 mM CaCl2, 300 mM NaCl, 0.01% Tween 80. Buffer B is the same as buffer A but with 1M NaCl and 1M CaCl2. Elution buffer (Buffer C) is the same as buffer A but with 40% ethylene glycol monomer and 250 mM CaCl2. Absorbance was monitored at 280 nm.
Confirmatory FVIII binding assays were performed in a column chromatographic format on the HPLC described above. Batch synthesized peptide-resin (substitution at 100 μmoles/g) was loaded and washed as described in Buettner, J., 1996, supra. The HPLC method injected the sample onto the column at 80 cm/hr linear velocity, allowed for flow-through of unbound protein, then stepped to 200 cm/hr for the wash with Buffer B (as described above), and then the bound protein eluted with Buffer C (as described above). FIGS. 1, 2 and 3 show the results from contacting a known amount of human Factor VIII to each of the preferred peptide-resins (sequence ID 1, 2 and 3, respectively).
Recombinant FVIII was applied to each column as described above. […] ELISA quantitation utilized a polyclonal antisera as capture antibody adsorbed onto the plate well, application of each fraction allowed the Factor VIII to adhere to the capture antibody. The making and using of polyclonal and monoclonal antibodies is well-know, and within the skill of one of ordinary skill in the art. See generally Antibodies, A Lab Manual, Harlow and Lane, eds., 1988, Cold Spring Harbor. Then a panel of 3 monoclonal antibodies were used to identify the Factor VIII and detection of these antibodies with a secondary-antibody enzyme conjugate allowed accurate quantitation of the Factor VIII. The flow-through fractions from each injection show greater than 96% target protein depletion by these peptide ligands. […] The binding avidity was weak enough to permit recovery of target protein during the elution phase of the chromatography.

human Factor VIII [2] = biological target: T1, human Factor VIII; experiment: Preparative hrFVIII purification by peptide resins, fractions assayed for Factor VIII activity (Coatest VIII:C/4); conditions: load KG2DEAE 136 IU; for Elute Total IU / Flow-Through Total IU / Salt Wash Total IU: Coatest
Method: Preparative batch synthesis of the preferred sequences was performed using 10 g TSK resin (Toyopearl AF-Amino-650M, TosoHaas, Inc., Montgomeryville, Pa.) as described in Buettner, J., 1996, supra. […] Three injections of an in-process sample of human Factor VIII were contacted with each resin and fractions of flow-through, salt wash and elution were tested for biological activity, protein profile by SDS-PAGE, and target protein identification by Western blot analyses, as described in Buettner, J., 1996, supra. Biological activity was defined as the ability of the column fraction to reconstitute Factor VIII-depleted plasma to thereby activate Factor X to Factor Xa, with quantitation of enzymatic activity by spectrophotometric measurement of cleaved substrate. (Coatest VIII:C/4, Chromogenix, Molndal, Sweden).
FIGS. 4, 5 and 6 show the purification chromatograms for binding of the rhFVIII to SEQ IDs 1, 2 and 3, respectively. In each figure, the bottom HPLC trace is the buffer blank injection; the three other HPLC traces are subsequent injections of the KG2DEAE sample. For each chromatogram, flow-through occurs from t=0-22 minutes; salt wash at t=26-34 minutes; elution at t=44-54 minutes. Each fraction (flow-through, salt wash and elution) was collected and assayed for Factor VIII activity by the above described Coatest assay.

Row | Elute Total μg (human Factor VIII [1]) | Flow-Through Total μg (human Factor VIII [1]) | Salt Wash Total μg (human Factor VIII [1]) | Elute % Recovery (human Factor VIII [2]; inj 2) | Purification (human Factor VIII [2]; inj 2) | Elute Total IU (human Factor VIII [2]; inj 2) | Flow-Through Total IU (human Factor VIII [2]; inj 2) | Salt Wash Total IU (human Factor VIII [2]; inj 2) | Elute % Recovery (human Factor VIII [2]; inj 3) | Purification (human Factor VIII [2]; inj 3) | Elute Total IU (human Factor VIII [2]; inj 3) | Flow-Through Total IU (human Factor VIII [2]; inj 3) | Salt Wash Total IU (human Factor VIII [2]; inj 3) | Elute % Recovery (human Factor VIII [2]; inj 4) | Purification (human Factor VIII [2]; inj 4) | Elute Total IU (human Factor VIII [2]; inj 4) | Flow-Through Total IU (human Factor VIII [2]; inj 4) | Salt Wash Total IU (human Factor VIII [2]; inj 4) | Substance
1 | 10.31 µg | 0.00 µg | 0.85 µg | 46% | 1.00 | 62 IU | 2 IU | 3 IU | 52% | 1.53 | 71 IU | 1 IU | 3 IU | 55% | 1.47 | 75 IU | 1 IU | 3 IU | His-Gln-Tyr-Gly-Tyr-His (HQYGYH; not fully specified; printed as His-Gln-Tyr-Gly-Tyr-His)
2 | 5.31 µg | 0.03 µg | 0.14 µg | 26% | 1.15 | 35 IU | 5 IU | 2 IU | 41% | 1.75 | 56 IU | 2 IU | 2 IU | 40% | 1.64 | 54 IU | 6 IU | 5 IU | Trp-His-Tyr-Tyr-His-Gly (WHYYHG; not fully specified; printed as Trp-His-Tyr-Tyr-His-Gly)
3 | 7.26 µg | 0.00 µg | 0.74 µg | 31% | 1.22 | 42 IU | 1 IU | 4 IU | 38% | 1.54 | 52 IU | 1 IU | 7 IU | 33% | 1.48 | 45 IU | 1 IU | 9 IU | His-Ile-Gln-His-Tyr-His (HIQHYH; not fully specified; printed as His-Ile-Gln-His-Tyr-His)
